We go through eight variants from IntAct's records for PubMed 23395900.

Sequences and labels used below:
B1: Protein RAD61 (Saccharomyces cerevisiae), Q99359 (parent)
chain: MRAYGKRGPVLRTPFRSNKGLPSSSDVEFSDDDVNSVIPDVSSTISSSIADHPIEGLLDEPRKAQDSSSSFDGANEKPSSQLDSKRNDQNVKIITSSDTSMAFMKDEKLSAFNFLDGSKASKRKRRRTYQKHDANITSSIEPDVQDEDSITMHNEFESIRKIYNDINEFILKLPRADDDILNKMLENEMKMDDSIENNSIRTSKDKKYGKFRTILINKNKENEIMGEEVDQKANTLSLNNADNSNAEKEGLTSTNHYNELKNMGDTIKYQDDIEFLLSNSKSNDNTTVPINEYFKKLLNLSLMIINDEEFFQYAKRYFKKEIIKLSFAQFRSDFPELILLQGYLLHKVSESQSDFPPSFDNFSIELSKDDGKIRTKKNKHIKKLSHLNFEDFLRKTQFKTGLYYSLSLWEMHGNLSLDIIKRISILASNKDLFSRHVKTFIPLLEKLITASEFCHMYIEQPEMFDSLISNLNNQFKDMLDDDSLIKILILLTNMEVHNYTLWKEADMIFQSSMNTILESIHPLTDAKVDNILLHLGLCLNICSRENSRLKLDGKLWYDMKTIFVKMIRDGSDTENRLVQGLFYLNFSFLIKQRKENSNLDPGELNLLLVELEAFKSETSQFNEGISNKIEIALNYLKSIYTSERITI
partner: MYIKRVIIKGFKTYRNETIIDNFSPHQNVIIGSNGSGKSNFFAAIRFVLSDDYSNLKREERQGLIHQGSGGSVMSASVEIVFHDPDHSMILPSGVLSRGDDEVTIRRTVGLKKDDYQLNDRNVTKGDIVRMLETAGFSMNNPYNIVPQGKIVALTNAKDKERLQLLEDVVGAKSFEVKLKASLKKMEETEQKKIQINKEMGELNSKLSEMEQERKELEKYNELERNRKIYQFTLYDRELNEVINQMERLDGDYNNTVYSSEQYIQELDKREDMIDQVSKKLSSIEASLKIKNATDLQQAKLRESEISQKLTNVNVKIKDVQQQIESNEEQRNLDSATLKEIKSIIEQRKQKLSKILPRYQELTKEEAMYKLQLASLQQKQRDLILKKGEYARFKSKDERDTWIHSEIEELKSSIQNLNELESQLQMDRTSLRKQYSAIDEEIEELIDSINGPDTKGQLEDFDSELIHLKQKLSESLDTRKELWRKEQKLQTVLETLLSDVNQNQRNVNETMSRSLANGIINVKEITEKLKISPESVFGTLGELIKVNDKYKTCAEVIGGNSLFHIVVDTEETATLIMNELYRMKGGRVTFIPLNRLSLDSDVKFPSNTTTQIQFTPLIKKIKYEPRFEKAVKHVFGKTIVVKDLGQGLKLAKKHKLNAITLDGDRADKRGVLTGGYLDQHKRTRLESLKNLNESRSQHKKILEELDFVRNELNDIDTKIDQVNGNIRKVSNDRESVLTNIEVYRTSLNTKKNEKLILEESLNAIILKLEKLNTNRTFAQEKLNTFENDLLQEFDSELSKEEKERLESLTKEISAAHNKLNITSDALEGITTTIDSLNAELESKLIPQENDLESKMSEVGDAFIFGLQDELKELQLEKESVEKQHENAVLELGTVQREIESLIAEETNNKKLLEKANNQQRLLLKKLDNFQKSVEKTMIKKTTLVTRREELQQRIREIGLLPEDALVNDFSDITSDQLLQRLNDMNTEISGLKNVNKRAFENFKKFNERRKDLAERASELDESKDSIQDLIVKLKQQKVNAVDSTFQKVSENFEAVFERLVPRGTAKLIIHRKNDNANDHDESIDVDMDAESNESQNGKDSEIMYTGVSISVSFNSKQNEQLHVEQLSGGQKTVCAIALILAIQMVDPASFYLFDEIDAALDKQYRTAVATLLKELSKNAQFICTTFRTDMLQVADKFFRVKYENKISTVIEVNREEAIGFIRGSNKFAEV
B2: Structural maintenance of chromosomes protein 3 (Saccharomyces cerevisiae), P47037 (parent)
chain: B1 partner
partner: B1 chain

The variants in the first test derive from B1. The conditions noted are these: with smc3_yeast SMC3, P47037.
Regarding N493A;L577R;N622A, the “effect of a mutation on the interaction” value was “decreasing interaction”.

The next test covers variants of B1. Particulars: with smc3_yeast SMC3, P47037. The source holds these as a separate data set.
Take D271A;D272A: the “effect of a mutation on the interaction” value was “decreasing interaction”.

The next test covers variants of B1. Particulars: with smc3_yeast SMC3, P47037. The source holds these as a separate data set.
N493A;N622A: the “effect of a mutation on the interaction” value is reported as “decreasing interaction”.

Variants of B1 are the subject of another test. The conditions noted are these: with smc3_yeast SMC3, P47037. This is another data set of the same source.
For N493A;L532E;N622A, the “effect of a mutation on the interaction” value is “decreasing interaction”.

Variants of B1 are the subject of another test. The conditions noted are these: with smc3_yeast SMC3, P47037. The source holds these as a separate data set.
As to K376Q;K377Q;K382Q;K383Q, the “effect of a mutation on the interaction” value was “decreasing interaction”.

In the next test the parent is B2. The conditions noted are these: with rad61_yeast RAD61, Q99359.
For L163D;L166D, the “effect of a mutation on the interaction” value is listed as “decreasing interaction”.

Variants of B2 are the subject of another test. Particulars: with rad61_yeast RAD61, Q99359. This is another data set of the same source.
For the variant L163A;L166A;D168A, the “effect of a mutation on the interaction” value is given as “decreasing interaction”.

The variants in a further test derive from B2. The conditions noted are these: with rad61_yeast RAD61, Q99359. The source holds these as a separate data set.
On to K112N;K113N, for which the “effect of a mutation on the interaction” value is “decreasing interaction”.
